Where no end group is shown, it is not given here.

Test [1] has as its target T1, PD-1 on the surface of cells (Jurkat T cells stimulated with PMA and ionomycin; iCIKs) (human, UniProt Q15116 25-288).
T1 construct: whole, on cells; Endogenous PD-1 of human cells; also called PD-1 on the surface of Jurkat T cells; PD-1-expressing Jurkat T cells
Kind of test: flow cytometry blocking assay: peptide mixed with recombinant human PD-L1, PD-L1 binding to PD-1-expressing stimulated Jurkat T cells read with APC streptavidin; nABP486 also binds PD-L1 itself (Figure 2D). The protocol:
(§1) The Jurkat T cells were divided into two groups, an experimental group and a control group, wherein in the experimental group, 50 ng/ml of Phorbol 12-myristate 13-acetate (PAM) and 1 ug/ml of Ionomycin Calcium Salt (Ionomycin) were used to stimulate the cells, and in the control group, Jurkat T cells were unstimulated. The cells (5×10⁵) were collected in each tube, and washed once with FACS buffer (PBS with 2% BSA). […] FACS buffer was used for washing the cells three times, and 0.12 ug/ml of APC Streptavidin (405207, Biolegend) was added to each tube and the incubation was performed for 1 hour at 4° C., and then the cells were washed three times with FACS buffer again, and 500 μl of PBS was added to resuspend the cells, which were further transferred to flow tubes and analyzed by flow cytometry.

In test [2] the target is T2, Recombinant Human PD-L1 protein (PD1-H82F3, Acro Biosystems) (human, UniProt Q9NZQ7 19-238).
T2 construct: Bought reagent
T2 sequence (Q9NZQ7 19-238 limits assumed): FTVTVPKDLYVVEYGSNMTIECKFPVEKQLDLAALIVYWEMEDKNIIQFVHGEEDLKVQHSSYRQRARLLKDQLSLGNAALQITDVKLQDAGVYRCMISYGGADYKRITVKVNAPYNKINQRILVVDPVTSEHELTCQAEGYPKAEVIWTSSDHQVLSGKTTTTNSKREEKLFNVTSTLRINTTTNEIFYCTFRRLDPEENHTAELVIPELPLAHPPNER
Briefly: SPR (Biacore T100), recombinant human PD-L1 coupled to CM5 chip, peptide as analyte. As for the experimental part: (§2) The affinity of the peptides was tested with Biocore T100 through surface plasmon resonance (SPR) technique. […] Finally, the affinities (Kd-value) of the peptides were calculated by fitting curves in the sensor diagram in Biacore software.

Test [3] addresses T3, Recombinant Human PD-1 protein (PD1-H5221, Acro Biosystems) (human, UniProt Q15116 25-167).
T3 construct: Bought reagent, amine-coupled to a CM5 chip for SPR
Briefly: SPR (Biacore T100), recombinant human PD-1 coupled to CM5 chip, peptide as analyte. The protocol: as §2

For test [4], the target named is T2, Recombinant Human PD-L1 protein …. Briefly: SPR (Biacore T100), recombinant human PD-L1 coupled to a CM5 chip, peptide as analyte at 0.03125-2 µM. As for the experimental part: as §2
In test [5] the target is T3, Recombinant Human PD-1 protein …. Briefly: SPR (Biacore T100), recombinant human PD-1 coupled to a CM5 chip, peptide as analyte at 0.03125-2 µM. The protocol:
as §2

In test [6] the target is T1, PD-1 on the surface of cells (Jurkat T …). Kind of test: flow cytometry blocking assay: peptide mixed with recombinant human PD-L1, PD-L1 binding to PD-1-expressing stimulated Jurkat T cells read with APC streptavidin. The protocol: as §1
Test [7] deals with T3, Recombinant Human PD-1 protein …. Kind of test: SPR (Biacore T100), recombinant human PD-1 coupled to a CM5 chip, peptide as analyte at 0.3125-20 µM. As for the experimental part:
as §2

T1 sequence (Q15116 25-288): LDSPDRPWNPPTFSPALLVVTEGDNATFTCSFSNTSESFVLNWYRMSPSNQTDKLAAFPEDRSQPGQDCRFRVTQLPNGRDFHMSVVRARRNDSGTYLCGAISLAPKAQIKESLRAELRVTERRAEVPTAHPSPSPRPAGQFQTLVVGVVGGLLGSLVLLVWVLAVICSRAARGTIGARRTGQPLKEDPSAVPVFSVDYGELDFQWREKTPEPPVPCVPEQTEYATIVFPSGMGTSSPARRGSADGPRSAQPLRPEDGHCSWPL
T3 sequence (Q15116 25-167 limits assumed): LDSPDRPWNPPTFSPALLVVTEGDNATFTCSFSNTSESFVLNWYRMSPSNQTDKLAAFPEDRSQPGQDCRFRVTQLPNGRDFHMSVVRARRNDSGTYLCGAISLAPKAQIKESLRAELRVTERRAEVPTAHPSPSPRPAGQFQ

B1: nABP486 (peptide)
chain 1: SHHHRLKLKEIANSPTQFWRMVARNTLGNGAKQSLNIEHA
chain 2: SHHHRL
modifications: also: lactam at chain A 7 at chain B 6 to a chain's C-terminus
notes: Branched synthetic peptide (Fmoc solid-phase synthesis)
Take B1: in test [1], the half-inhibitory concentration (IC50) is 2580 nM. The values for the dissociation constant Kd in test [2], in test [3] and in test [4] were 54.2 nM, 11.9 nM and 52.4 nM, respectively. For the same molecule, the off-rate (koff) in test [4] is 0.00204 s⁻¹; in test [5], 0.00589 s⁻¹. The results for the kon in test [4] and in test [5] were 38900 M⁻¹ s⁻¹ and 496000 M⁻¹ s⁻¹, respectively.

B2: nABP386 (peptide)
chain 1: SRLKEIANSPTQFWRMVARNTLGNHAKQSLNIEHA
chain 2: SHHHRL
modifications: also: bond at chain A 27 at chain B 6 to a chain's C-terminus
notes: as for B1
In the case of B2, the dissociation constant Kd in test [3] came to 75.1 nM. In test [6], the IC50 was found to be 3420 nM. Also, in test [5], the koff is 0.00293 s⁻¹ and the association rate constant (kon) came out at 39000 M⁻¹ s⁻¹.

B3: nABP786 (peptide)
chain 1: SHHHRLKLKEIANCSPTQFKC
chain 2: SHHHRL
modifications: cysteine pairing not given here; also: lactam at chain A 7 at chain B 6 to a chain's C-terminus
B3: the Kd stood at 16.7 nM in test [2] and 5.84 nM in test [3]. The dissociation rate constant (koff) in test [4] turned out to be 0.000486 s⁻¹; in test [5] it was 0.000453 s⁻¹. In addition, the on-rate (kon) in test [4] is 29000 M⁻¹ s⁻¹; in test [5], 77600 M⁻¹ s⁻¹.

B4: nABP284 (peptide)
peptide: SRLKEIANSPTQFWRMVARNTLGGAKQSLNIEHARL
modifications: not fully specified
notes: also called PD-1-nABP284
For B4, the 50% inhibitory concentration (IC50) in test [6] came to 9610 nM. Also, in test [7], the equilibrium dissociation constant (Kd) was found to be 11800 nM.
